{"source": "patent US20160024200A1", "about": "(published 2016)", "key": {"[1]": {"target": "T1, human granulocyte macrophage colony-stimulating factor (GM-CSF) (human, UniProt P04141 18-144)", "T1 construct": "also called rhGM-CSF", "T1 sequence (P04141 18-144 limits assumed)": "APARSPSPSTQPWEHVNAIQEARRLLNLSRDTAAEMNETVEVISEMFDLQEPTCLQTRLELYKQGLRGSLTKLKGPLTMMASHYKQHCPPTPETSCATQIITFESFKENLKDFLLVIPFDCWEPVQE", "assay": "SPR, Biacore 3000, mAb captured on anti-human IgG, GM-CSF as analyte, 25 C", "experimental": "The SPR experiments were performed at 25° C. on a Biacore 3000 (GE Healthcare, Piscataway, N.J.) using a CM5 sensor chip and HBS-P (10 mM HEPES, pH 7.4, 150 mM NaCl, 0.01% P-20) or HBS-EP (10 mM HEPES, pH 7.4, 150 mM NaCl, 3 mM EDTA, 0.01% P-20). Anti-human IgG (Fc) (GE Healthcare) or anti-human IgG (Southern Biotech, cat. #2040-01) was immobilized similarly on the experimental and reference flow cells using standard amine coupling. […] GM-CSF made in-house or purchased (Genscript, Cat. #Z00349), was injected over the mAb-coated cell and reference cell at the following concentrations: 100, 50, 25, 12.5, 6.25, 3.12, 1.5 and 0.8 nM. The flow rate was 30 μL/min and triplicate blank injections and replicate injections of the 12.5 nM GM-CSF were included to account for any drift and to ensure assay reproducibility. […] To regenerate the capture surface, two 30 sec pulses of a 2:1 mixture of glycine (pH 2) to 3 M MgCI was utilized. All data were double reference subtracted in that they were subtracted both from the reference cell and from a blank injection. Data were fit to a 1:1 model with (for those with very fast on-rates) or without a mass transport term using the Biacore 3000 evaluation software."}, "[2]": {"target": "T1, human granulocyte macrophage …", "assay": "cell-based or functional assay"}, "[3]": {"target": "T1, human granulocyte macrophage …", "assay": "cell-based or functional assay", "remark": "listed apart in the source"}, "[4]": {"target": "T1, human granulocyte macrophage …", "assay": "cell-based or functional assay", "remark": "listed apart in the source"}}, "data": [{"binder": "F1 human monoclonal antibody against GM-CSF (antibody, V domains shown, also called F1 antibody; purified F1) VH: QVQLQESGPGVVKPSETLSLTCSVSDSAIRKYYWSWIRQPPGQGLEYIGYIYASGSSFYNPSFKSRVSMSVDATNNQFYLKLTSVTAADTAVYYCAAITGTTDLWGRGTLVTVSS VL: DIQMTQSPSSVSASVGDRVTITCRASQGINRRLAWYQQKPGKAPKRLIYAVSTLQSGVPSRFNGSGSGTDFTLTVNNVQPDDLAMYFCLQSNNYPLTFGGGTKVEIK", "values": [{"measurement": "Kd", "setting": "[1]", "value": 0.12, "unit": "nM"}, {"measurement": "koff", "setting": "[1]", "value": 0.0001, "unit": "s⁻¹"}, {"measurement": "kon", "setting": "[1]", "value": 830000, "unit": "M⁻¹ s⁻¹"}, {"measurement": "IC50 (read off the curve); CD11b on human neutrophils in whole blood with 10 ng/mL GM-CSF (FACS), % inhibition", "setting": "[2]", "value": "~50", "unit": "ng/mL"}, {"measurement": "IC50 (ng/mL), TF-1 assay", "setting": "[3]", "value": 0.8, "unit": "ng/mL"}, {"measurement": "IC50, TF-1 assay", "setting": "[4]", "value": "< 1", "unit": "ng/mL"}, {"measurement": "IC50, TF-1 assay (200 pg/mL GM-CSF)", "setting": "[4]", "value": "0.7 to 0.8", "unit": "ng/mL"}]}]}
